# Numbered stars: 1 amine (or outer) side, 2 acyl side, 3 side chain; on linkers, the order of the positions; unused ones are H or OH. Bridge positions count the residues as written; N and C are the ends. Side chains are listed from the residue outwards. Ends that are not written are not given here. * marks the point of attachment. C20 diacid = O=C(O)CCCCCCCCCCCCCCCCCCC(=O)*; γGlu = O=C(O)[C@H](CCC(=O)[*:2])N[*:1]
# T1: human amylin receptor (amylin 3(a) receptor: human calcitonin receptor coexpressed with RAMP-3) (human, UniProt P30988 25-474; O60896 24-148)
# T1 sequence (looked up) 1: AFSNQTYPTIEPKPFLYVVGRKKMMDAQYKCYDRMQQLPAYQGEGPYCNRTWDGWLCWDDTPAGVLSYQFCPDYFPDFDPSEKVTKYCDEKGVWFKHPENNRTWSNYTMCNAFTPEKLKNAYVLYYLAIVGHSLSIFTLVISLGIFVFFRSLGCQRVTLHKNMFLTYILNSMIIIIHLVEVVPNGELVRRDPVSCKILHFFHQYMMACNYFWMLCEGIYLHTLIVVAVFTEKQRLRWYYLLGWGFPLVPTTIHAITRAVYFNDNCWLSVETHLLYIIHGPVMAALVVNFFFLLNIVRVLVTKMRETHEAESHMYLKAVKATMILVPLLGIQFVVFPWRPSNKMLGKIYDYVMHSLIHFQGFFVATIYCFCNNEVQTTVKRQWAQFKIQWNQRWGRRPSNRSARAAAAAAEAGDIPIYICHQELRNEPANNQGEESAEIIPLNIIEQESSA
# T1 sequence (looked up) 2: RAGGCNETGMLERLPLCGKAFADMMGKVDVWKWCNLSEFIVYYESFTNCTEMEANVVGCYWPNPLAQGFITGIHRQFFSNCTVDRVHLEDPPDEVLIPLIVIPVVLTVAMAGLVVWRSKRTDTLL
# T2: human calcitonin receptor (human, UniProt P30988 25-474)
# T2 sequence (looked up): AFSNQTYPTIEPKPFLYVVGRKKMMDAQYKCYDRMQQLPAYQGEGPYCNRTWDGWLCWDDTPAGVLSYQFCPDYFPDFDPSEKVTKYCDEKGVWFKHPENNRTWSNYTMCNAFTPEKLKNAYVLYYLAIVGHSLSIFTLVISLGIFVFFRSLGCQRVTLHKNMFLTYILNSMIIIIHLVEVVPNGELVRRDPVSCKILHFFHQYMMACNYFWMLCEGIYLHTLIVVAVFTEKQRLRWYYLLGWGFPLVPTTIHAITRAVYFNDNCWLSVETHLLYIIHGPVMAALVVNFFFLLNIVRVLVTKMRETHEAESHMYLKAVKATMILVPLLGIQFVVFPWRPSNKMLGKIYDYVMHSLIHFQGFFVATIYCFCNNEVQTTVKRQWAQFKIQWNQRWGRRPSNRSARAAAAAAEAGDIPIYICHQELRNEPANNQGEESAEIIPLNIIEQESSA
# Columns and labels:
# [1] = molecular target: T1, human amylin receptor (amylin 3(a) …); assay: cell-based or functional assay
# [2] = molecular target: T2, human calcitonin receptor; assay: cell-based or functional assay
# [3] = molecular target: T1, human amylin receptor (amylin 3(a) …); assay: SPA competition against 125I-rat amylin, membranes of BHK amylin 3(a)/CRE-luc cells (Assay V)
# Description: The binding assay was performed using scintillation proximity assay (SPA) beads (RPNQ0001) from PerkinElmer and cell membranes from the Amylin 3(a)/CRE-luc cells (as described in Assay (II)) were used. Membranes were prepared in the following way; the cells were rinsed with PBS and incubated with Versene for approximately 5 min before harvesting. The cells were flushed with PBS and the cell-suspension was centrifuged for 5 min at 1000 rpm. Cells were homogenized (ultrathurrax) in a buffer containing 20 mM Na-HEPES and 10 mM EDTA (pH 7.4) and centrifuged at 20.000 rpm for 15 min. The resulting pellet was resuspended, homogenized and centrifuged (20.000 rpm, 15 min) in a buffer containing 20 mM Na-HEPES and 0.1 mM EDTA (pH 7.4, buffer 2). The resulting pellet was resuspended in buffer 2 and protein concentration was measured (BCA protein Assay, Pierce). The homogenate was kept cold during the whole procedure. The membranes were kept at −80° C. until use. The assay was performed in a 384 well Optiplate (PerkinElmer) in a total volume of 40 ul. Membranes were mixed with SPA beads. Final concentration of membranes 35 ng/μL final and SPA beads was 0.05 mg/well. Test-compounds were dissolved in DMSO and further diluted in assay buffer (50 mM Hepes, pH 7.4, 1 mM CaCl2, 5 mM MgCl₂, 0.1% OA and 0.02% Tween20). […] The final mixture was incubated with shaking at 400 rpm for 120 min at 25° C. prior to centrifugation (1500 rpm, 10 min). Samples were analyzed on TopCounter™ (Packard). The IC₅₀ was calculated using (one site binding competition analysis) GraphPad Prism5 as a measure of receptor affinity.
binder,measurement,setting,value
K([γGlu-γGlu-C20 diacid])CNTATCATQRLAEFLRHSSPNFGAIPSSTNVGRETY-NH2 (disulfide 2-7; N-terminus assumed; SMILES CC[C@H](C)[C@H](NC(=O)[C@H](C)NC(=O)CNC(=O)[C@H](Cc1ccccc1)NC(=O)[C@H](CC(N)=O)NC(=O)[C@@H]1CCCN1C(=O)[C@H](CO)NC(=O)[C@H](CO)NC(=O)[C@H](Cc1c[nH]cn1)NC(=O)[C@H](CCCNC(=N)N)NC(=O)[C@H](CC(C)C)NC(=O)[C@H](Cc1ccccc1)NC(=O)[C@H](CCC(=O)O)NC(=O)[C@H](C)NC(=O)[C@H](CC(C)C)NC(=O)[C@H](CCCNC(=N)N)NC(=O)[C@H](CCC(N)=O)NC(=O)[C@@H](NC(=O)[C@H](C)NC(=O)[C@@H]1CSSC[C@H](NC(=O)[C@@H](N)CCCCNC(=O)CC[C@H](NC(=O)CC[C@H](NC(=O)CCCCCCCCCCCCCCCCCCC(=O)O)C(=O)O)C(=O)O)C(=O)N[C@@H](CC(N)=O)C(=O)N[C@@H]([C@@H](C)O)C(=O)N[C@@H](C)C(=O)N[C@@H]([C@@H](C)O)C(=O)N1)[C@@H](C)O)C(=O)N1CCC[C@H]1C(=O)N[C@@H](CO)C(=O)N[C@@H](CO)C(=O)N[C@H](C(=O)N[C@@H](CC(N)=O)C(=O)N[C@H](C(=O)NCC(=O)N[C@@H](CCCNC(=N)N)C(=O)N[C@@H](CCC(=O)O)C(=O)N[C@H](C(=O)N[C@@H](Cc1ccc(O)cc1)C(N)=O)[C@@H](C)O)C(C)C)[C@@H](C)O),hAmylin-R funct. EC50 (pM),[1],703 pM
same,Ratio hCT/hAmylin funct.,[2],10.6
same,hCTR funct. EC50 (pM),[2],7430 pM
same,IC50,[3],0.957 nM
K([γGlu-γGlu-C20 diacid])CNTATCATQRLAEFLRHSSPNFGAIPSSTNVGPETY-NH2 (disulfide 2-7; N-terminus assumed; SMILES CC[C@H](C)[C@H](NC(=O)[C@H](C)NC(=O)CNC(=O)[C@H](Cc1ccccc1)NC(=O)[C@H](CC(N)=O)NC(=O)[C@@H]1CCCN1C(=O)[C@H](CO)NC(=O)[C@H](CO)NC(=O)[C@H](Cc1c[nH]cn1)NC(=O)[C@H](CCCNC(=N)N)NC(=O)[C@H](CC(C)C)NC(=O)[C@H](Cc1ccccc1)NC(=O)[C@H](CCC(=O)O)NC(=O)[C@H](C)NC(=O)[C@H](CC(C)C)NC(=O)[C@H](CCCNC(=N)N)NC(=O)[C@H](CCC(N)=O)NC(=O)[C@@H](NC(=O)[C@H](C)NC(=O)[C@@H]1CSSC[C@H](NC(=O)[C@@H](N)CCCCNC(=O)CC[C@H](NC(=O)CC[C@H](NC(=O)CCCCCCCCCCCCCCCCCCC(=O)O)C(=O)O)C(=O)O)C(=O)N[C@@H](CC(N)=O)C(=O)N[C@@H]([C@@H](C)O)C(=O)N[C@@H](C)C(=O)N[C@@H]([C@@H](C)O)C(=O)N1)[C@@H](C)O)C(=O)N1CCC[C@H]1C(=O)N[C@@H](CO)C(=O)N[C@@H](CO)C(=O)N[C@H](C(=O)N[C@@H](CC(N)=O)C(=O)N[C@H](C(=O)NCC(=O)N1CCC[C@H]1C(=O)N[C@@H](CCC(=O)O)C(=O)N[C@H](C(=O)N[C@@H](Cc1ccc(O)cc1)C(N)=O)[C@@H](C)O)C(C)C)[C@@H](C)O),hAmylin-R funct. EC50 (pM),[1],225 pM
same,Ratio hCT/hAmylin funct.,[2],10.5
same,hCTR funct. EC50 (pM),[2],2360 pM
same,IC50,[3],0.121 nM
